According to the supplement of paper PMC12042874:
± gives the uncertainty stated by the source.

test: amyloid nucleation score (Sup35N fusion, yeast selection) (log enrichment); library NNK1; higher = more nucleation; inactive = no reads after selection
Procedure, shortened: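 The nucleation score is the DiMSum log enrichment of output over input reads, centred on the mode score of non-aggregating sequences. Only sequences with 100 or more input reads were scored, using Illumina sequencing of input and output plasmid inserts. Psi-negative yeast expressing Sup35N fused to peptides of 20 random codons were induced 24 hours with 100 μM copper sulfate and grown 7 days at 30°C on medium lacking adenine and uracil.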

Substance	amyloid nucleation score
FSYCEWRDKCCERWSFLDNQ	1.11 ± 0.49
FTAWP	-0.242 ± 0.3
FTMFFPMGSVC	0.292 ± 0.64
FTRKEVVPMWDKEDRVCIGD	0.02 ± 0.74
FTRWLSFKTYG	-0.283 ± 0.66
FTSFFVSV	-1.91 ± 1.9
FTTDVERSVLFEVNLWSNGW	5.33 ± 0.066
FTVLVELALFMRSCLSRGFN	-0.261 ± 0.27
FVCWVGTGLMIRVAIDQCWR	-0.202 ± 0.31
FVEMVYFNECCIPKFDIEYV	1.6 ± 0.17
FVGGPPMIQYVVPV	0.326 ± 0.42
FVLRLS	inactive
FVLRV	0.423 ± 0.47
FVMSHSL	0.987 ± 0.43
FVNFGFAGIASWHFVLMFIK	0.1 ± 0.27
FVSTVYLY	5.35 ± 0.064
FVTIWWLYRTCIFLSTVRTT	1.5 ± 0.26
FVTMAVWGLYTCFKVHKGIV	-0.4 ± 0.78
FVVSLECTTRRVGLGALC	inactive
FVVVVGSHLGDGFCDCWVNC	2.03 ± 0.24
FVYLVHLLMNGRVIKLFRDM	-0.372 ± 0.27
FWCMALK	-1.05 ± 2.4

Substance	amyloid nucleation score
FWDVTPWCHSRDCAVLFSRA	-1.37 ± 2.7
FWEYSSRNPQSHYTVLRSKV	-0.509 ± 0.32
FWREHTMR	inactive
FWVDCSRVVRLKIQFNLV	0.864 ± 0.42
FWVFAITFTAERKLQADDLF	1.84 ± 0.15
FYEASDRGERLEQKLKLTVL	1.51 ± 0.49
FYFSASATIL	-0.093 ± 0.81
FYIILNVLFPRQVTCSDK	5.7 ± 0.075
FYITQTEGQLLLCR	-0.148 ± 0.55
FYMGGDCVYNECQGEIRLSL	-0.234 ± 0.7
FYPIYGFRWTIFYQPALYNL	-1.08 ± 1.7
FYPLF	1.27 ± 0.66
FYVSLRWV	0.105 ± 0.45
FYVVRGHGHCWM	0.68 ± 0.33
FYYYSSCHYWYC	-0.13 ± 0.79
GAAQWMKNSTIGHARFIADL	0.2 ± 0.39
GAICQGLINDVVGRGDGMMR	1.19 ± 0.97
GALVCRCDGCYKSMGKAIMA	-0.243 ± 0.56
GCGFS	-0.126 ± 0.4
GCIECEGAGCAPIYGVEWLD	0.122 ± 0.84
GCIWWPTDRPLLLSPAMSYS	0.133 ± 0.37
GCLAPLLIDLCCFQMRNSSN	0.05 ± 0.49

Substance	amyloid nucleation score
GCRMWFAWQVGVILMVDMFI	0.307 ± 0.81
GCSVVNMADMG	1.29 ± 0.45
GCVVI	0.258 ± 0.26
GDKSFSYCSLCCLFWARLPR	5.83 ± 0.064
GEGQQSGVVSNLSGYRSNS	0.418 ± 0.51
GELLTLHITGLNEVLVNTSM	-0.21 ± 0.31
GELWLAHLLLRSRVRTHRCP	5.78 ± 0.068
GENPGQDYASGFLNVFKNYL	1.01 ± 0.54
GFCYM	0.997 ± 0.35
GFDKLVGPCGYGLRRGSLWR	0.781 ± 0.52
GFGLVRIPIMFNEAPEVVSK	-0.133 ± 0.46
GFISIGP	-0.068 ± 0.29
GFKGQRNNAIQVMGKKNRLQ	-0.238 ± 0.59
GFKVVDTAWFL	-0.116 ± 0.27
GFLIGRSD	0.022 ± 0.43
GFNKSSSGFVSSNGDIDYWD	-1.68 ± 2.1
GFSEKQNY	0.383 ± 0.54
GFSLDRFSDHVLMGNSD	-0.585 ± 0.23
GFSRQSTWMCRKWSTNPRTW	1.15 ± 0.34
GFTSHFRYLWHILIRYWSNP	0.442 ± 0.39
GFVMKLLL	1.35 ± 0.21
GFVSAKLIPCAVLQKGLLPV	0.313 ± 0.51

Substance	amyloid nucleation score
GFVTKDWLSVMRYIYQMLTS	-0.016 ± 0.4
GFYGCYSYVVLGGRVEP	-1.02 ± 2.4
GFYGNIYFDNLRLNVMTRRG	9.21 ± 0.061
GGCVGLCFRYSFPTCDSC	1.65 ± 0.42
GGEDLRKFLDMFVIVSKNTT	0.67 ± 0.46
GGFFICQGDTRVV	0.222 ± 0.58
GGFIR	-0.516 ± 1.1
GGFSNFMMVCNVATFSSNQL	3.47 ± 0.19
GGHHVSPVCLEWNNLRWDI	0.897 ± 0.78
GGKRVGNIVVRRAQIIIGRR	1.07 ± 0.7
GGLICTGNFY	inactive
GGLVYRLEKDSF	inactive
GGNKPCG	2.11 ± 0.57
GGSFYKAILFNRKCVYVGSR	0.942 ± 0.51
GGVLGSTKSLFVDPANLGGL	inactive
GGWSGRSLRDCVCMVHIKVG	0.071 ± 0.75
GGYIDPLS	inactive
GHPVWRCFSDGSSPLFWDYG	inactive
GHRTWRLITAIDA	0.088 ± 0.4
GHSSRLRFT	-0.42 ± 0.48
GHVVLFLLYDLSFYSNIFCA	0.712 ± 0.19
